Changes are numbered by the printed parent chain. Numbers in names are those of the source.
T1: Human CD3eg linker (human)
T1 construct: Single chain: epsilon and gamma subunits of human CD3 joined by a 29-mer linker, Flag-tag at the C-terminus; also called recombinant human CD3
T1 chain: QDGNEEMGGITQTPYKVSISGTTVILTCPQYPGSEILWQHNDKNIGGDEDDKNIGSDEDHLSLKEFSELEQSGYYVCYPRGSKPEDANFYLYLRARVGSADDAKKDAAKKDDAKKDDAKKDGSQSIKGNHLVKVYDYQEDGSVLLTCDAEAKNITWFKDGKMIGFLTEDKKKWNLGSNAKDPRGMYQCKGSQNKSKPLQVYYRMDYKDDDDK

B1: H183/L072 VH Q50L (antibody, name in Kabat numbering, V domains shown)
VH: QVQLVESGGGLVQPGRSLRLSCAASGFTFSNAWMHWVRQAPGKGLEWVALIKDKGNAYAAYYAPSVKGRFTISRDDSKNSIYLQMNSLKTEDTAVYYCHYVHYASASTVLPAFGVDAWGQGTTVTVSS
VL: DIVMTQSPLSLPVTPGEPASISCQASQELVHMNRNTYLHWYQQKPGQAPRLLIYKVSNRFPGVPDRFSGSGSGTDFTLKISRVEAEDVGVYYCAQGTSVPFTFGQGTKLEIK
B2: H183/L072 VH S30P (antibody, name in Kabat numbering, V domains shown)
VH: B1 VH with S30P, L50Q
VL: B1 VL
B3: H183/L072 VH S30D (antibody, name in Kabat numbering, V domains shown)
VH: B1 VH with S30D, L50Q
VL: B1 VL
B4: H183/L072 VH S30M (antibody, name in Kabat numbering, V domains shown)
VH: B1 VH with S30M, L50Q
VL: B1 VL
B5: H183/L072 VH S30K (antibody, name in Kabat numbering, V domains shown)
VH: B1 VH with S30K, L50Q
VL: B1 VL
B6: H183/L072 VH Q50T (antibody, name in Kabat numbering, V domains shown)
VH: B1 VH with L50T
VL: B1 VL
B7: H183/L072 VH S30V (antibody, name in Kabat numbering, V domains shown)
VH: B1 VH with S30V, L50Q
VL: B1 VL
B8: H183/L072 VH S30E (antibody, name in Kabat numbering, V domains shown)
VH: B1 VH with S30E, L50Q
VL: B1 VL
B9: H183/L072 VH Q50W (antibody, name in Kabat numbering, V domains shown)
VH: B1 VH with L50W
VL: B1 VL
B10: H183/L072 VH Q50P (antibody, name in Kabat numbering, V domains shown)
VH: B1 VH with L50P
VL: B1 VL
B11: H183/L072 VH S30T (antibody, name in Kabat numbering, V domains shown)
VH: B1 VH with S30T, L50Q
VL: B1 VL
B12: H183/L072 VH S30R (antibody, name in Kabat numbering, V domains shown)
VH: B1 VH with S30R, L50Q
VL: B1 VL
B13: H183/L072 VH Q50V (antibody, name in Kabat numbering, V domains shown)
VH: B1 VH with L50V
VL: B1 VL
B14: H183/L072 VH S62L (antibody, name in Kabat numbering, V domains shown)
VH: B1 VH with L50Q, S65L
VL: B1 VL
B15: H183/L072 VH S30L (antibody, name in Kabat numbering, V domains shown)
VH: B1 VH with S30L, L50Q
VL: B1 VL
B16: H183/L072 VH Q50Y (antibody, name in Kabat numbering, V domains shown)
VH: B1 VH with L50Y
VL: B1 VL
B17: H183/L072 VH Q50N (antibody, name in Kabat numbering, V domains shown)
VH: B1 VH with L50N
VL: B1 VL
B18: H183/L072 VH Q50S (antibody, name in Kabat numbering, V domains shown)
VH: B1 VH with L50S
VL: B1 VL
B19: H183/L072 VH S30Y (antibody, name in Kabat numbering, V domains shown)
VH: B1 VH with S30Y, L50Q
VL: B1 VL
B20: H183/L072 VH S30F (antibody, name in Kabat numbering, V domains shown)
VH: B1 VH with S30F, L50Q
VL: B1 VL
B21: H183/L072 VH S30Q (antibody, name in Kabat numbering, V domains shown)
VH: B1 VH with S30Q, L50Q
VL: B1 VL
B22: H183/L072 VH S30A (antibody, name in Kabat numbering, V domains shown)
VH: B1 VH with S30A, L50Q
VL: B1 VL
B23: H183/L072 VH S62I (antibody, name in Kabat numbering, V domains shown)
VH: B1 VH with L50Q, S65I
VL: B1 VL
B24: H183/L072 VH S30I (antibody, name in Kabat numbering, V domains shown)
VH: B1 VH with S30I, L50Q
VL: B1 VL
B25: H183/L072 VH S62P (antibody, name in Kabat numbering, V domains shown)
VH: B1 VH with L50Q, S65P
VL: B1 VL
B26: H183/L072 VH S30H (antibody, name in Kabat numbering, V domains shown)
VH: B1 VH with S30H, L50Q
VL: B1 VL
B27: H183/L072 VH Q50M (antibody, name in Kabat numbering, V domains shown)
VH: B1 VH with L50M
VL: B1 VL
B28: H183/L072 VH S30G (antibody, name in Kabat numbering, V domains shown)
VH: B1 VH with S30G, L50Q
VL: B1 VL
B29: H183/L072 VH S30W (antibody, name in Kabat numbering, V domains shown)
VH: B1 VH with S30W, L50Q
VL: B1 VL
B30: H183/L072 VH Q50R (antibody, name in Kabat numbering, V domains shown)
VH: B1 VH with L50R
VL: B1 VL
B31: H183/L072 VH S30N (antibody, name in Kabat numbering, V domains shown)
VH: B1 VH with S30N, L50Q
VL: B1 VL
B32: H183/L072 VH S62M (antibody, name in Kabat numbering, V domains shown)
VH: B1 VH with L50Q, S65M
VL: B1 VL
B33: H183/L072 VH S62A (antibody, name in Kabat numbering, V domains shown)
VH: B1 VH with L50Q, S65A
VL: B1 VL

Molecular target: T1, Human CD3eg linker
Test: Biacore SPR, vs template H183/L072

Row | Binder | fold change of affinity
1 | B1 | 0.2 fold
2 | B2 | 0.3 fold
3 | B3 | 1 fold
4 | B4 | 0.7 fold
5 | B5 | 0.9 fold
6 | B6 | 0 fold
7 | B7 | 0.8 fold
8 | B8 | 0.6 fold
9 | B9 | 0 fold
10 | B10 | 0 fold
11 | B11 | 1.1 fold
12 | B12 | 0.8 fold
13 | B13 | 0 fold
14 | B14 | 1.5 fold
15 | B15 | 0.8 fold
16 | B16 | 0.9 fold
17 | B17 | 0 fold

Row | Binder | fold change of affinity
18 | B18 | 0 fold
19 | B19 | 1.2 fold
20 | B20 | 1 fold
21 | B21 | 0.8 fold
22 | B22 | 0.8 fold
23 | B23 | 1.4 fold
24 | B24 | 0.8 fold
25 | B25 | 1.3 fold
26 | B26 | 1 fold
27 | B27 | 0.1 fold
28 | B28 | 1.1 fold
29 | B29 | 1.3 fold
30 | B30 | 0 fold
31 | B31 | 0.7 fold
32 | B32 | 1.3 fold
33 | B33 | 1.4 fold

Source: patent US20210388087A1 (Chugai, published 2021)
